Experiment [1] concerns the target HLA-B*15:02. The experiment in a line: IEDB peptide-MHC binding, purified MHC/direct/fluorescence; filed as Kd, often an IC50 or EC50 that approximates it; ≥ and ≤ were set here for values at or beyond the usual limits of such assays. To be noted: source organism: Convict Creek 107 virus.
In experiment [2] the target is HLA-B*15:01. The description is as above. Particulars: source organism: Convict Creek 107 virus.
Experiment [3] concerns the target HLA-B*46:01. The description is as above. To be noted: source organism: Convict Creek 107 virus.
For experiment [4], the target named is HLA-B*45:06. The experiment is described as follows: IEDB peptide-MHC binding, purified MHC/competitive/fluorescence; filed as Kd, often an IC50 or EC50 that approximates it; ≥ and ≤ were set here for values at or beyond the usual limits of such assays. Particulars: source organism: Escherichia coli B171.
Experiment [5] deals with HLA-B*40:01. The experiment is described as above. To be noted: source organism: Escherichia coli B171.
The target in experiment [6] is HLA-A*32:07. The experiment is described as above. Particulars: source organism: Escherichia coli B171.
The target in experiment [7] is HLA-B*15:42. The description is as above. To be noted: source organism: Escherichia coli B171.
Experiment [8] has as its target HLA-B*40:13. Described as above. To be noted: source organism: Escherichia coli B171.
Experiment [9] has as its target HLA-B*83:01. The experiment is described as above. Particulars: source organism: Escherichia coli B171.
The target of experiment [10] is HLA-B*39:01. The experiment is described as above. To be noted: source organism: Escherichia coli B171.

We go through two sequences from the Immune Epitope Database (IEDB).

Where only a bound is given, the exact number is not on record here.

Usually Kd stands for the concentration at which binding is half-saturated. Read a low Kd as a tighter complex. Turning to VLFKTESGF, the Kd in [1] was 47 nM; in experiment [2], 11.8 nM; in experiment [3], not below 20000 nM.

With HELSLFWPL, the Kd is not below 5000 nM in experiment [4]; 2.5 nM in [5]; 58.2 nM in experiment [6]; not below 5000 nM in experiment [7]; 30.2 nM in experiment [8]; not below 5000 nM in experiment [9]. In addition, in [10], the Kd was 0.2 nM.
